Laboratory results from patent publication US20230167164A1 (IMMUNOWAKE, published 2023).
Residue numbers refer to the chain shown, from its start. Names may count otherwise.

B1: Fab-IL-12(E59A)-Fc-CD4 Ab (other)
heavy 1: QVQLQQSGPEVVKPGASVKMSCKASGYTFTSYVIHWVRQKPGQGLDWIGYINPYNDGTDYDEKFKGKATLTSDTSTSTAYMELSSLRSEDTAVYYCAREKDNYATGAWFAYWGQGTLVTVSSASTKGPSVFPLAPSSKSTSGGTAALGCLVKDYFPEPVTVSWNSGALTSGVHTFPAVLQSSGLYSLSSVVTVPSSSLGTQTYICNVNHKPSNTKVDKKVEPKSCDKPGSGIWELKKDVYVVELDWYPDAPGEMVVLTCDTPEEDGITWTLDQSSEVLGSGKTLTIQVKAFGDAGQYTCHKGGEVLSHSLLLLHKKEDGIWSTDILKDQKEPKNKTFLRCEAKNYSGRFTCWWLTTISTDLTFSVKSSRGSSDPQGVTCGAATLSAERVRGDNKEYEYSVECQEDSACPAAEESLPIEVMVDAVHKLKYENYTSSFFIRDIIKPDPPKNLQLKPLKNSRQVEVSWEYPDTWSTPHSYFSLTFCVQVQGKSKREKKDRVFTDKTSATVICRKNASISVRAQDRYYSSSWSEWASVPCSGGGGSGGGGSGGGGSGGGGSGRNLPVATPDPGMFPCLHHSQNLLRAVSNMLQKARQTLEFYPCTSEEIDHEDITKDKTSTVEACLPLELTKNESCLNSRETSFITNGSCLASRKTSFMMALCLSSIYEDLKMYQVEFKTMNAKLLMDPKRQIFLDQNMLAVIDELMQALNFNSETVPQKSSLEEPDFYKTKIKLCILLHAFRIRAVTIDRVMSYLNASDKTHTCPPCPAPEDEGGPSVFLFPPKPKDTLMISRTPEVTCVVVDVSHEDPEVKFNWYVDGVEVHNAKTKPREEQYNSTYRVVSVLTVLHQDWLNGKEYKCKVSNKALPAPIEKTISKAKGQPREPQVYVYPPSREEMTKNQVSLTCLVKGFYPSDIAVEWESNGQPENNYKTTPPVLDEDGSFALVSKLTVDKSRWQQGNVFSCSVMHEALHNHYTQKSLSLSPGK
heavy 2: QVQLQQSGPEVVKPGASVKMSCKASGYTFTSYVIHWVRQKPGQGLDWIGYINPYNDGTDYDEKFKGKATLTSDTSTSTAYMELSSLRSEDTAVYYCAREKDNYATGAWFAYWGQGTLVTVSSASTKGPSVFPLAPSSKSTSGGTAALGCLVKDYFPEPVTVSWNSGALTSGVHTFPAVLQSSGLYSLSSVVTVPSSSLGTQTYICNVNHKPSNTKVDKKVEPKSCDKTHTCPPCPAPEKKGGPSVFLFPPKPKDTLMISRTPEVTCVVVDVSHEDPEVKFNWYVDGVEVHNAKTKPREEQYNSTYRVVSVLTVLHQDWLNGKEYKCKVSNKALPAPIEKTISKAKGQPREPQVYVLPPSREEMTKNQVSLLCLVKGFYPSDIAVEWESNGQPENRYMTWPPVLDSDGSFFLYSKLTVDKSRWQQGNVFSCSVMHEALHNHYTQKSLSLSPGK
light: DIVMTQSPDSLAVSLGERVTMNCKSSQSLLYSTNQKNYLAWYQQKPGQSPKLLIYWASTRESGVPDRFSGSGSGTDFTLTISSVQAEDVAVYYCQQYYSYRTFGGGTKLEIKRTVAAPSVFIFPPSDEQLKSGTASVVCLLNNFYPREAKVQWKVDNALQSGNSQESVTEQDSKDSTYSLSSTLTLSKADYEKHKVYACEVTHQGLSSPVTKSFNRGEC
B2: Fab-IL-12(F60A)-Fc-CD4 Ab (other)
heavy 1: B1 heavy 1 with A290E, F291A
heavy 2: B1 heavy 2
light: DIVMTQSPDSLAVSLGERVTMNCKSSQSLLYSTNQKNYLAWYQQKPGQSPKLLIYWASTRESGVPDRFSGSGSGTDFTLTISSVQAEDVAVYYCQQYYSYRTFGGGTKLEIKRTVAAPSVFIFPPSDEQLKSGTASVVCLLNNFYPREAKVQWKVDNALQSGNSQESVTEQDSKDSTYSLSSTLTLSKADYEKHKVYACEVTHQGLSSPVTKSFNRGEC
B3: Fab-IL-12(E59A/F60A)-Fc-CD4 Ab (other)
heavy 1: B1 heavy 1 with F291A
heavy 2: B1 heavy 2
light: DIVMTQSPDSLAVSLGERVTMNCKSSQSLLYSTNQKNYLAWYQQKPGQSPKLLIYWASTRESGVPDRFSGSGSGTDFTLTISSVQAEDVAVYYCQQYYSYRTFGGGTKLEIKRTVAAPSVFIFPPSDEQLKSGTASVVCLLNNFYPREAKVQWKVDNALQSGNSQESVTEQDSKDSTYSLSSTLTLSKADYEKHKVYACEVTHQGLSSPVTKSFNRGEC

The binders below were run against T1, CD8 on CD8+ T cells (human, UniProt P01732 22-235) (assay: FACS on CD8+ T cells).
T1 construct: whole, on cells
T1 sequence (P01732 22-235): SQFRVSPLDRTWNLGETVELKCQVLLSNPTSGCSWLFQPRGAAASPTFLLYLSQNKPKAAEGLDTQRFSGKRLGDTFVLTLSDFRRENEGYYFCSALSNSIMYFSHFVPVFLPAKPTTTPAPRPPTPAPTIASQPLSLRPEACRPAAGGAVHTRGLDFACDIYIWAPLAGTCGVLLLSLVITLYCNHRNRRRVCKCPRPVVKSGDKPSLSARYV

| binding result | Binder |
| --- | --- |
| no binding | B1 |
| no binding | B2 |
| no binding | B3 |

Each binder was assayed against human IL-12 receptor complex (human, UniProt P42701 24-662; Q99665 24-862) (assay: cell-based or functional assay).
human IL-12 receptor complex, sequence (Q99665 24-862, chain 2 of 2, other chains not shown): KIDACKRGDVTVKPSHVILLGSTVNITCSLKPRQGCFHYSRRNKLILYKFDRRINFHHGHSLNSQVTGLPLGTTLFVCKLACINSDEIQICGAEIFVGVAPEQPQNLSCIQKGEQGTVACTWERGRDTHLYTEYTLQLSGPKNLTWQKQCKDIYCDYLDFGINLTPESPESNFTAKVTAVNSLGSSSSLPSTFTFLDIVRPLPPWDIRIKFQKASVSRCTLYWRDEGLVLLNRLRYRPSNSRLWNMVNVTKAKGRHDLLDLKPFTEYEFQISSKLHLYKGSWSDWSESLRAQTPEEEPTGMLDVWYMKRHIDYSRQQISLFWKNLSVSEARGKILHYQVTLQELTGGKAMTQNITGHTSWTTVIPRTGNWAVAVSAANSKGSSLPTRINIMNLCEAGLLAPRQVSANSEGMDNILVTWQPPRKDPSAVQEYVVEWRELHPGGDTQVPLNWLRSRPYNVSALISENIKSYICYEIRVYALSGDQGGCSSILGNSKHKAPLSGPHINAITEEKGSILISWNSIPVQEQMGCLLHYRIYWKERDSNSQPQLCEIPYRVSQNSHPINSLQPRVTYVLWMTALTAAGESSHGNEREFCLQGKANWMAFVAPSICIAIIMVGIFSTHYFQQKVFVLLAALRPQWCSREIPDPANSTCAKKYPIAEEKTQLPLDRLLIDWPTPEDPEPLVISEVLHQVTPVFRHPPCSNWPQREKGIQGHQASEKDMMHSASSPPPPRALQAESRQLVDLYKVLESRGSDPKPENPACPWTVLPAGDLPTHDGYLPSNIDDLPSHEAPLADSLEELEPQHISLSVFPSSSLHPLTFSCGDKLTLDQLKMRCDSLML

| IFN-γ release, % of rIL-12, activated CD8+ T cells [%] | Binder |
| --- | --- |
| 1.1 | B1 |
| 1.5 | B2 |
| 0 | B3 |
